From patent EP4772613A1 (GI Cell, Inc., dated 2026)

Tests used:
[1] = target: T1, IL-2Rβ and common γ chain on HEK-Blue CD122/132 cells (InvivoGen hkb-il2bg) (UniProt P14784 27-551; P31785 23-369, limits assumed); assay: cell-based or functional assay
T1 sequence (looked up) 1: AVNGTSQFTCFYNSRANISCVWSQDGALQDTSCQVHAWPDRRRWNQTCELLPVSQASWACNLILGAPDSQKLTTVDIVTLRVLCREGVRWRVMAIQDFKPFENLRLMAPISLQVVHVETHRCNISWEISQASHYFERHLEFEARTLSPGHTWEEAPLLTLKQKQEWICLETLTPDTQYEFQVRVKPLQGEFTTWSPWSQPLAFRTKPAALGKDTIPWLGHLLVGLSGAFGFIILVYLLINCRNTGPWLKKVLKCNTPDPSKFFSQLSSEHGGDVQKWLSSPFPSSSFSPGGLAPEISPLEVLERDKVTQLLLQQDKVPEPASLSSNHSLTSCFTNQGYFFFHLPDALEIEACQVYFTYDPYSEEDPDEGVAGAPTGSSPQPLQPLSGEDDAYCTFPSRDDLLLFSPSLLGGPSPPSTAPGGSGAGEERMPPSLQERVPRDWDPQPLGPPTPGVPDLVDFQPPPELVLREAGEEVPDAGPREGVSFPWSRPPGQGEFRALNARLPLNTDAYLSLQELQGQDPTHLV
T1 sequence (looked up) 2: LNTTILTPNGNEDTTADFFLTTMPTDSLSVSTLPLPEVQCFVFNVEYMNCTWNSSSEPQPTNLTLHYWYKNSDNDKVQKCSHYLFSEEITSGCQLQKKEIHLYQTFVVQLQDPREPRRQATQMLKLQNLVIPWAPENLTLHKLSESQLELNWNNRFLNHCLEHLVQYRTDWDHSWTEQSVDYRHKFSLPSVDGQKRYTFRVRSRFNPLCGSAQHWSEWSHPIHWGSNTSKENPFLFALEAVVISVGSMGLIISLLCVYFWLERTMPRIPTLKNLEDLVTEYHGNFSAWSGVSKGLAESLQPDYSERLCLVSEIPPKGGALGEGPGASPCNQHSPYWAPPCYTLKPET

[2] = target: T2, IL-2Rβ-his (Acro CD2-H5221) (UniProt P14784 27-239); assay: Octet BLI; IL-2Rβ-his on Ni-NTA sensor, analyte 2,000 to 31.25 nM
T2 construct: also called CD122; not shown: his tag
T2 sequence (looked up): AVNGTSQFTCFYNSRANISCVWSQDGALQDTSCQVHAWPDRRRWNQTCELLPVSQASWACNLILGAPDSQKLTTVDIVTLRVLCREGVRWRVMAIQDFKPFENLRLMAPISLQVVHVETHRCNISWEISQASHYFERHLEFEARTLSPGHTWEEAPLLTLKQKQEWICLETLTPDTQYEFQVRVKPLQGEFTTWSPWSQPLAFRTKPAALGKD

B1: GIC-982C15 (IL-2/IL-15v8) (S76K) (Fc fusion)
chain: GSAESKYGPPCPPCPAPEAAGGPSVFLFPPKPKDQLMISRTPEVTCVVVDVSQEDPEVQFNWYVDGVEVHNAKTKPREEQFNSTYRVVSVLTVLHQDWLNGKEYKCKVSNKGLPSSIEKTISKAKGQPREPQVYTLPPSQEEMTKNQVSLTCLVKGFYPSDIAVEWESNGQPENNYKTTPPVLDSDGSFFLYSRLTVDKSRWQEGNVFSCSVLHEALHNHYTQKSLSLSLGGGGGSGGGGSITCPPPMSVEHADIWVKSYSLYSRERYICNSGFKRKAGTSSLTECVLNKATNVAHWTTPSLKCIRGGGGSGGGGSGGGGSGGGGSAPTSSSTKKTQLQLEHLLLDLQMILNGSMHIDATLYTESDVHPSCKVTAMKCFLLELQVISLESKNFHLRPRDLIKNINVIVLELKGSNGNVTESGCKECEELEEKNIVEFLNRWITFCQSIISTLT
EC50 (ng/ml), STAT5 activity, HEK-Blue CD122/132 reporter cells [1]: 134 ng/mL
Kd [2]: 178 nM
koff [2]: 0.000476 s⁻¹
kon [2]: 2670 M⁻¹ s⁻¹
